This data set concerns the molecule itself. Nature of the data set: analytical size exclusion chromatography and analytical ultracentrifugation (sedimentation equilibrium); self-association (dimer) not seen. (Size exclusion chromatography separates by hydrodynamic size, large species first.)

Description: Bovine serum albumin (66 kDa, Vᵣ=9.861 ml), carbonic anhydrase (29 kDa, Vᵣ=12.35 ml), myoglobin (17.05 kDa, Vᵣ=13.244 ml), cytochrome C (12.4 kDa, Vᵣ=14.11 ml), and aprotinin (6.5 kDa, Vᵣ=16.35 ml) were used as protein size standards for calibration of the column while the void volume was determined with blue dextran (V₀=8.08 ml).
Sedimentation equilibrium experiments were performed using an XL-I analytical ultracentrifuge and a Ti-60 rotor equipped with a UV/Vis as well as interference detector (Beckman, Fullerton, Calif.). An 0.8 mg/ml solution of the purified recombinant Blc in 150 mM NaCl, 1 mM EDTA, 100 M Tris/HCl pH 8.0 was applied to six-sector 12 mm path length cells. The samples were centrifuged at 25000 rpm for 72 h at 4° C., until equilibrium was reached, whereby the protein gradient was measured by UV absorption at 280 nm.

B1: recombinant Blc (Escherichia coli bacterial lipocalin, Cys1Ala/Cys113Ser, C-terminal Strep-tag II, as encoded on pBlc2) (other)
chain: ASSPTPPRGVTVVNNFDAKRYLGTWYEIARFDHRFERGLEKVTATYSLRDDGGLNVINKGYNPDRGMWQQSEGKAYFTGAPTRAALKVSFFGPFYGGYNVIALDREYRHALVSGPDRDYLWILSRTPTISDEVKQEMLAVATREGFDVSKFIWVQQPGSAWSHPQFEK
notes: The construct has 168 residues (159 + 9 tag residues)
With B1, the binding result was “no binding (tested: about 40 µM)”.
